Laboratory results reported in patent publication US20200148733A1 (Pieris, published 2020).
Values joined by “and” are separate entries in the source; they are usually repeats but may differ in a detail not shown here. Equal values may be shown once. Values belong to the binder of their own block, whether it stands above or below them.

B3: human IL-23 (ligand)
chain 1: RAVPGGSSPAWTQCQQLSQKLCTLAWSAHPLVGHMDLREEGDEETTNDVPHIQCGDGCDPQGLRDNSQFCLQRIHQGLIFYEKLLGSDIFTGEPSLLPDSPVGQLHASLLGLSQLLQPEGHHWETQQIPSLSPSQPWQRLLLRFKILRSLQAFVAVAARVFAHGAATLSP
chain 2: IWELKKDVYVVELDWYPDAPGEMVVLTCDTPEEDGITWTLDQSSEVLGSGKTLTIQVKEFGDAGQYTCHKGGEVLSHSLLLLHKKEDGIWSTDILKDQKEPKNKTFLRCEAKNYSGRFTCWWLTTISTDLTFSVKSSRGSSDPQGVTCGAATLSAERVRGDNKEYEYSVECQEDSACPAAEESLPIEVMVDAVHKLKYENYTSSFFIRDIIKPDPPKNLQLKPLKNSRQVEVSWEYPDTWSTPHSYFSLTFCVQVQGKSKREKKDRVFTDKTSATVICRKNASISVRAQDRYYSSSWSEWASVPCS
notes: Heterodimer of p19 and p40; in the proliferation assays CAT # HZ-1254, HumanZyme; also called hIL-23; hIL23

What was measured:
human IL-17A = human IL-17A (human, UniProt Q16552 24-155); assay: cell-based or functional assay
human IL-23 [1] = target: B3; assay: competition ELISA (ECL), 0.2 nM biotinylated hIL-23, coated soluble hIL-23R
[2] = target: T1, lipocalin mutein SEQ ID NO: 10; assay: solution competition ELISA: 1 nM SEQ ID NO: 10 pre-incubated with varied ligand, free mutein captured on immobilised biotinylated hIL-23 (competitor)
T1 construct: Human NGAL (lipocalin 2) mutein specific for IL-23p19
T1 chain: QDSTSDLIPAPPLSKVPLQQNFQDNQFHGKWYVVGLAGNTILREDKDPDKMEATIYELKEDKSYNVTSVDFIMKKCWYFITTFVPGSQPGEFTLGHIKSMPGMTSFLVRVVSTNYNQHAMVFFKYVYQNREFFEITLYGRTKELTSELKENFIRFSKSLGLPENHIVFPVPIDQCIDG
Experimental: (§1) In the following detailed experimental protocol, incubation and washing steps were performed as described above in the competition ELISA protocol. A 384-well plate suitable for fluorescence measurements (Greiner FLUOTRAC™ 600, black flat bottom, high-binding) was coated with 20 μl of Neutravidin at a concentration of 5 μg/ml in PBS over night at 4° C. After washing, the Neutravidin-coated wells were blocked with 100 μl PBS-T/BSA for 1h at room temperature.

[3] = target: T2, lipocalin mutein SEQ ID NO: 9; assay: solution competition ELISA: 10 nM SEQ ID NO: 9 pre-incubated with varied ligand, free mutein captured on immobilised biotinylated hIL-23 (competitor)
T2 construct: Human NGAL (lipocalin 2) mutein specific for IL-23p19
T2 chain: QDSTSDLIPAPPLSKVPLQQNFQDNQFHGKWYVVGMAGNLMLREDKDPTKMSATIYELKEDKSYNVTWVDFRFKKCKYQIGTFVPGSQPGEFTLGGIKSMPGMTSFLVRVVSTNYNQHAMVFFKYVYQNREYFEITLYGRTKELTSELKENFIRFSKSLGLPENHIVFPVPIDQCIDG
Experimental: as §1

[4] = target: T3, lipocalin mutein SEQ ID NO: 6; assay: solution competition ELISA: 100 nM mutein (C-terminal Streptag) pre-incubated with varied ligand, free mutein captured on immobilised biotinylated hIL-23 (competitor)
T3 construct: Tear lipocalin mutein specific for IL-23p19
Experimental: as §1, with “blocking buffer (PBS-T/BSA)” for “PBS-T/BSA”
(§2) Note that the lipocalein muteins contained a C-terminal Streptag fusion to allow binding and subsequent detection with the aid of an anti-Streptag antibody.
(§3) The residual supernatants were discarded and 20 μl of HRP-conjugated anti-Streptag IgG antibody (Genscript) was added at a predetermined optimal concentration in PBS-T/BSA and incubated for 1 h at RT. After washing, 20 μl fluorogenic HRP substrate (Quantablue, Pierce) was added to each well, and the reaction allowed to proceed for 30 minutes.

[5] = target: T4, lipocalin mutein SEQ ID NO: 12; assay: as above
T4 construct: Tear lipocalin mutein specific for IL-23p19
Experimental: as §1, with “blocking buffer (PBS-T/BSA)” for “PBS-T/BSA”
as §2, §3

[6] = target: T5, lipocalin mutein SEQ ID NO: 13; assay: as above
T5 construct: Tear lipocalin mutein specific for IL-23p19
Experimental: as §1, with “blocking buffer (PBS-T/BSA)” for “PBS-T/BSA”
as §2, §3

[7] = target: T6, lipocalin mutein SEQ ID NO: 5; assay: solution competition ELISA: 0.5 nM SEQ ID NO: 5 pre-incubated with varied ligand, free mutein captured on immobilised biotinylated hIL-17A (competitor)
T6 construct: Human tear lipocalin (Tlc) mutein specific for IL-17A; also called Tlc mutein
Experimental: as §1, with “blocking buffer (PBS-T/BSA)” for “PBS-T/BSA”

human IL-23 [8] = target: B3; assay: cell-based or functional assay
human IL-23 [9] = target: B3; assay: cell-based or functional assay; remark: listed apart in the source
human IL-23 [10] = target: B3; assay: competition ELISA (ECL): 0.2 nM biotinylated hIL-23 pre-incubated with varied mutein, free hIL-23 captured on coated soluble hIL-23R (competitor)
human IL-23 [11] = target: B3; assay: competition ECL assay: biotinylated hIL-23 pre-incubated with varied binder, free hIL-23 captured on coated soluble hIL-23R (competitor); Example 28
human IL-23 [12] = target: B3; assay: competition ELISA (ECL): 0.05 nM biotinylated hIL-23 pre-incubated with varied binder, free hIL-23 captured on coated soluble hIL-23R (competitor); single measurement
Experimental: (§4) The IgG antibody served as the positive control. […] The detailed experimental procedure was described as follows.
(§5) After washing, 60 μl MSD Read Buffer T (2×) was added to each well and the plate was read within 15 min.
(§6) The resulting Electrochemoluminescence (ECL) signal was measured with a suitable instrument such as the SECTOR Imager 2400 (Meso Scale Discovery).

human IL-23 [13] = target: B3; assay: competition ELISA (ECL): 0.05 nM biotinylated hIL-23 pre-incubated with varied binder, free hIL-23 captured on coated soluble hIL-23R (competitor); average of two measurements
Experimental: as §4, §5, §6

T6 sequence (chain, as listed by the source): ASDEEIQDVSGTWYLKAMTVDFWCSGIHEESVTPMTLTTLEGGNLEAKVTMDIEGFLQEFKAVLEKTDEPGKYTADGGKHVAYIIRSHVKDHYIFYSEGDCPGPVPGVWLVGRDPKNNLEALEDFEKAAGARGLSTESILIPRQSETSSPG
T5 sequence (chain, as listed by the source): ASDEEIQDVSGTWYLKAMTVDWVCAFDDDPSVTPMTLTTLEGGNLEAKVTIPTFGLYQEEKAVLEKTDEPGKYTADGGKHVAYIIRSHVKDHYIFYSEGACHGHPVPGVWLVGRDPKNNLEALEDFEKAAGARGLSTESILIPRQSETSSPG
T4 sequence (chain, as listed by the source): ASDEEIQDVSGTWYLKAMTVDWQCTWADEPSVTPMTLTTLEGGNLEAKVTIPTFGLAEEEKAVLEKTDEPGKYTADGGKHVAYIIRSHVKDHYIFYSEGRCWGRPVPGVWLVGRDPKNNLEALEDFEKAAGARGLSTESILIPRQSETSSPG
T3 sequence (chain, as listed by the source): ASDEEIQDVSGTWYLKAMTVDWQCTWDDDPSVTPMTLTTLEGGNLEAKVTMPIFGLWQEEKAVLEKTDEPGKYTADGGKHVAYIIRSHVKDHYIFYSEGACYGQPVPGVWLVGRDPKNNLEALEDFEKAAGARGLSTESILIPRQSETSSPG

- IC50, hIL-23-induced proliferation of Ba/F3 cells expressing hIL-23R and hIL-12Rβ1 (human IL-23 [8]): 3.8 nM
- EC50 [nM] AVERAGE, hIL-23-induced proliferation of Ba/F3 cells expressing hIL-23R and hIL-12Rβ1 (human IL-23 [9]): 0.6 nM
- EC50 [nM] Exp 1, hIL-23-induced proliferation of Ba/F3 cells expressing hIL-23R and hIL-12Rβ1 (human IL-23 [9]): 0.3 nM
- EC50 [nM] Exp 2, hIL-23-induced proliferation of Ba/F3 cells expressing hIL-23R and hIL-12Rβ1 (human IL-23 [9]): 0.4 nM
- EC50 [nM] Exp 3, hIL-23-induced proliferation of Ba/F3 cells expressing hIL-23R and hIL-12Rβ1 (human IL-23 [9]): 1 nM
- EC50 [nM] Exp 4, hIL-23-induced proliferation of Ba/F3 cells expressing hIL-23R and hIL-12Rβ1 (human IL-23 [9]): 0.7 nM
- IC50 (human IL-23 [10]): 0.3 nM
- IC50 (human IL-23 [11]): 0.27 nM
B5: lipocalin mutein SEQ ID NO: 15 (designed binder)
chain: QDSTSDLIPAPPLSKVPLQQNFQDNQFHGKWYVVGEAGNLLLREDKDPRKMTATIYELKEDKSYNVTRVEFGVKTYKYQIGTFVPGSQPGEFTLGGIKSMPGMTSFLVRVVSTNYNQHAMVFFKYVYQNREYFEITLYGRTKELTSELKENFIRFSKSLGLPENHIVFPVPIDQAIDG
notes: IL-23p19-specific mutein

- IC50 [2]: 361 nM
- IC50 [3]: 88 nM
B7: mouse IL-23 (ligand)
chain 1: VPRSSSPDWAQCQQLSRNLCMLAWNAHAPAGHMNLLREEEDEETKNNVPRIQCEDGCDPQGLKDNSQFCLQRIRQGLAFYKHLLDSDIFKGEPALLPDSPMEQLHTSLLGLSQLLQPEDHPRETQQMPSLSSSQQWQRPLLRSKILRSLQAFLAIAARVFAHGAATLTEPLVPTA
chain 2: MWELEKDVYVVEVDWTPDAPGETVNLTCDTPEEDDITWTSDQRHGVIGSGKTLTITVKEFLDAGQYTCHKGGETLSHSHLLLHKKENGIWSTEILKNFKNKTFLKCEAPNYSGRFTCSWLVQRNMDLKFNIKSSSSSPDSRAVTCGMASLSAEKVTLDQRDYEKYSVSCQEDVTCPTAEETLPIELALEARQQNKYENYSTSFFIRDIIKPDPPKNLQMKPLKNSQVEVSWEYPDSWSTPHSYFSLKFFVRIQRKKEKMKETEEGCNQKGAFLVEKTSTEVQCKGGNVCVQAQDRYYNSSCSKWACVPCRVRS
notes: also called mIL-23

More lines, now with the values behind:

B1: benchmark antibody 2 (antibody, human IgG4, kappa, V domains shown)
VH: QVQLVQSGAEVKKPGSSVKVSCKASGYSFTDYHISWVRQAPGQGLEWMGVINPEYGTTDYNQRFKGRVTITADESTSTAYMELSSLRSEDTAVYYCARYDYFTGTGAYWGQGTLVTVSS
VL: DIVMTQTPLSLSVTPGQPASISCRSSQSLKHSRGNTFLHWYLQKPGQSPQLLIYKVSNRFIGVPDRFSGSGSGTDFTLKISRVEAEDVGVYYCSQSTHYPFTFGQGTKLEIKR
- IC50, hIL-17A-induced secretion of G-CSF in U87-MG cells (human IL-17A): 0.6 nM

B2: negative control SEQ ID NO: 11 (designed binder)
chain: QDSTSDLIPAPPLSKVPLQQNFQDNEFHGKWYVVGLAGNAILREDKDPQKMYATIYELKEDKSYNVTSVLFRKKKCDYWIRTFVPGSQPGEFTLGNIKSYPGLTSYLVRVVSTNYNQHAMVFFKKVSQNREYFKITLYGRTKELTSELKENFIRFSKSLGLPENHIVFPVPIDQCIDG
- binding result (human IL-23 [1]): no binding (tested: starting concentration 500 nM)

Binder: B3
- IC50 [2]: 1.4 nM
- IC50 [3]: 55 nM
- IC50 [4]: 89 nM
- IC50 [5]: 66 nM
- IC50 [6]: 24 nM

B4: cynomolgus monkey IL-17A (ligand)
chain: GIAIPRNSGCPNSEDKNFPRTVMVNLNIHNRNTSTNPKRSSDYYNRSTSPWNLHRNEDPERYPSVIWEAKCRHLGCVKADGNVDYHMNSVPIQQEILVLRREPRHCPNSFRLEKILVSVGCTCVTPIVHHVA
notes: also called cIL-17A; cIL-17-A
- IC50 [7]: 0.3 nM

B6: ABD fusion (SEQ ID NO: 42) (designed binder)
chain: QDSTSDLIPAPPLSKVPLQQNFQDNQFHGKWYVVGEAGNLLLREDKDPRKMTATIYELKEDKSYNVTRVEFGVKTYKYQIGTFVPGSQPGEFTLGGIKSMPGMTSFLVRVVSTNYNQHAMVFFKYVYQNREYFEITLYGRTKELTSELKENFIRFSKSLGLPENHIVFPVPIDQAIDGSAGAVDANSLAEAKVLANRELDKYGVSDYYKNLINNAKTVEGVKALIDEILAALP
- IC50 (experiment of FIG. 19), hIL-23-induced proliferation of Ba/F3 cells expressing hIL-23R and hIL-12Rβ1 (human IL-23 [8]): 0.22 nM
- IC50 (three independent experiments), hIL-23-induced proliferation of Ba/F3 cells expressing hIL-23R and hIL-12Rβ1 (human IL-23 [8]): 0.41 nM

B8: IgG antibody (comprising the amino acids shown in SEQ ID NOs: 51 and 52) (antibody, V domains shown)
VH: QVQLVQSGAEVKKPGASVKVSCKASGYIFITYWMTWVRQAPGQGLEWMGQIFPASGSADYNEKFEGRVTMTTDTSTSTAYMELRSLRSDDTAVYYCARGGGGFAYWGQGTLVTVSS
VL: DIQMTQSPSSLSASVGDRVTITCRTSENIYSYLAWYQQKPGKAPKLLIYNAKTLAEGVPSRFSGSGSGTDFTLTISSLQPEDFATYYCQHHYGIPFTFGQGTKVEIKR
notes: also called positive control IgG
- IC50 (human IL-23 [12]): 0.22 nM and 0.29 nM
- IC50 (human IL-23 [13]): 0.26 nM
